B1: rhB7-H6-hFc recombinant protein, wild type [modified: N-linked glycans (removed on the plate by PNGase F in assay a2); N-linked glycans (removed on the plate by PNGase F in assay a2)] [human] / rhNKp30-his protein [human] (parent)
chain 1: LWVSQPPEIRTLEGSSAFLPCSFNASQGRLAIGSVTWFRDEVVPGKEVRNGTPEFRGRLAPLASSRFLHDHQAELHIRDVRGHDASIYVCRVEVLGLGVGTGNGTRLVVEKEHPQLG
chain 2: DLKVEMMAGGTQITPLNDNVTIFCNIFYSQPLNITSMGITWFWKSLTFDKEVKVFEFFGDHQEAFRPGAIVSPWRLKSGDASLRLPGIQLEEAGEYRCEVVVTPLKAQGTVQLEVVASPASRLLLDQVGMKENEDKYMCESSGFYPEAINITWEKQTQKFPHPIEISEDVITGPTIKNMDGTFNVTSCLKLNSSQEDPGTVYQCVVRHASLHTPLRSNFTLTAARHSLSETEKTDNFS
B2: B7-H6, wild type, stably expressed on B7-H6 knockout 293T cells [modified: N-linked glycans at N43, N57, N174, N208, N216 and N242; N-linked glycans at N43, N57, N174, N208, N216 and N242] [human] / rhNKp30-his protein [human] (parent)
chain 1: B1 chain 1
chain 2: DLKVEMMAGGTQITPLNDNVTIFCNIFYSQPLNITSMGITWFWKSLTFDKEVKVFEFFGDHQEAFRPGAIVSPWRLKSGDASLRLPGIQLEEAGEYRCEVVVTPLKAQGTVQLEVVASPASRLLLDQVGMKENEDKYMCESSGFYPEAINITWEKQTQKFPHPIEISEDVITGPTIKNMDGTFNVTSCLKLNSSQEDPGTVYQCVVRHASLHTPLRSNFTLTAARHSLSETEKTDNFSIHWWPISFIGVGLVLLIVLIPWKKICNKSSSAYTPLKCILKHWNSFDTQTLKKEHLIFFCTRAWPSYQLQDGEAWPPEGSVNINTIQQLDVFCRQEGKWSEVPYVQAFFALRDNPDLCQCCRIDPALLTVTSGKSIDDNSTKSEKQTPREHSDAVPDAPILPVSPIWEPPPATTSTTPVLSSQPPTLLLPLQ

Variants of: B1
Test: ELISA
Details: with rhNKp30-his protein [human]; no PNGase F pretreatment; read at the highest NKp30 conc. tested, 2 (unit not printed in this panel); parent: 1.7; read off a plot

Row | response | Variant
1 | 1.5 OD | chain 2 DLKVEMMAGGTQITPLNDNVTIFCNIFYSQPLQITSMGITWFWKSLTFDKEVKVFEFFGDHQEAFRPGAIVSPWRLKSGDASLRLPGIQLEEAGEYRCEVVVTPLKAQGTVQLEVVASPASRLLLDQVGMKENEDKYMCESSGFYPEAINITWEKQTQKFPHPIEISEDVITGPTIKNMDGTFNVTSCLKLNSSQEDPGTVYQCVVRHASLHTPLRSNFTLTAARHSLSETEKTDNFS [chain 2 N33Q]

Same assay, conditions: with rhNKp30-his protein [human]; pretreated with denatured PNGase F; read at the highest NKp30 conc. tested, 2 (unit not printed in this panel); read off a plot

Row | response | Variant
2 | 1.4 OD | chain 2 DLKVEMMAGGTQITPLNDNVTIFCNIFYSQPLQITSMGITWFWKSLTFDKEVKVFEFFGDHQEAFRPGAIVSPWRLKSGDASLRLPGIQLEEAGEYRCEVVVTPLKAQGTVQLEVVASPASRLLLDQVGMKENEDKYMCESSGFYPEAINITWEKQTQKFPHPIEISEDVITGPTIKNMDGTFNVTSCLKLNSSQEDPGTVYQCVVRHASLHTPLRSNFTLTAARHSLSETEKTDNFS [chain 2 N33Q]

Variants of: B2
Test: flow cytometry on cells
Details: with rhNKp30-his protein [human]; 293T cells stably expressing B7-H6, stained with his-tagged NKp30; parent: 1; read off a plot

Row | Variant | ratio to parent
3 | chain 2 DLKVEMMAGGTQITPLNDQVTIFCNIFYSQPLNITSMGITWFWKSLTFDKEVKVFEFFGDHQEAFRPGAIVSPWRLKSGDASLRLPGIQLEEAGEYRCEVVVTPLKAQGTVQLEVVASPASRLLLDQVGMKENEDKYMCESSGFYPEAINITWEKQTQKFPHPIEISEDVITGPTIKNMDGTFNVTSCLKLNSSQEDPGTVYQCVVRHASLHTPLRSNFTLTAARHSLSETEKTDNFSIHWWPISFIGVGLVLLIVLIPWKKICNKSSSAYTPLKCILKHWNSFDTQTLKKEHLIFFCTRAWPSYQLQDGEAWPPEGSVNINTIQQLDVFCRQEGKWSEVPYVQAFFALRDNPDLCQCCRIDPALLTVTSGKSIDDNSTKSEKQTPREHSDAVPDAPILPVSPIWEPPPATTSTTPVLSSQPPTLLLPLQ [chain 2 N19Q] | 0.14
4 | chain 2 DLKVEMMAGGTQITPLNDNVTIFCNIFYSQPLNITSMGITWFWKSLTFDKEVKVFEFFGDHQEAFRPGAIVSPWRLKSGDASLRLPGIQLEEAGEYRCEVVVTPLKAQGTVQLEVVASPASRLLLDQVGMKENEDKYMCESSGFYPEAINITWEKQTQKFPHPIEISEDVITGPTIKNMDGTFQVTSCLKLNSSQEDPGTVYQCVVRHASLHTPLRSNFTLTAARHSLSETEKTDNFSIHWWPISFIGVGLVLLIVLIPWKKICNKSSSAYTPLKCILKHWNSFDTQTLKKEHLIFFCTRAWPSYQLQDGEAWPPEGSVNINTIQQLDVFCRQEGKWSEVPYVQAFFALRDNPDLCQCCRIDPALLTVTSGKSIDDNSTKSEKQTPREHSDAVPDAPILPVSPIWEPPPATTSTTPVLSSQPPTLLLPLQ [chain 2 N184Q] | 0.22
5 | chain 2 DLKVEMMAGGTQITPLNDNVTIFCNIFYSQPLNITSMGITWFWKSLTFDKEVKVFEFFGDHQEAFRPGAIVSPWRLKSGDASLRLPGIQLEEAGEYRCEVVVTPLKAQGTVQLEVVASPASRLLLDQVGMKENEDKYMCESSGFYPEAIQITWEKQTQKFPHPIEISEDVITGPTIKNMDGTFNVTSCLKLNSSQEDPGTVYQCVVRHASLHTPLRSNFTLTAARHSLSETEKTDNFSIHWWPISFIGVGLVLLIVLIPWKKICNKSSSAYTPLKCILKHWNSFDTQTLKKEHLIFFCTRAWPSYQLQDGEAWPPEGSVNINTIQQLDVFCRQEGKWSEVPYVQAFFALRDNPDLCQCCRIDPALLTVTSGKSIDDNSTKSEKQTPREHSDAVPDAPILPVSPIWEPPPATTSTTPVLSSQPPTLLLPLQ [chain 2 N150Q] | 0.8
6 | chain 2 DLKVEMMAGGTQITPLNDNVTIFCNIFYSQPLQITSMGITWFWKSLTFDKEVKVFEFFGDHQEAFRPGAIVSPWRLKSGDASLRLPGIQLEEAGEYRCEVVVTPLKAQGTVQLEVVASPASRLLLDQVGMKENEDKYMCESSGFYPEAINITWEKQTQKFPHPIEISEDVITGPTIKNMDGTFNVTSCLKLNSSQEDPGTVYQCVVRHASLHTPLRSNFTLTAARHSLSETEKTDNFSIHWWPISFIGVGLVLLIVLIPWKKICNKSSSAYTPLKCILKHWNSFDTQTLKKEHLIFFCTRAWPSYQLQDGEAWPPEGSVNINTIQQLDVFCRQEGKWSEVPYVQAFFALRDNPDLCQCCRIDPALLTVTSGKSIDDNSTKSEKQTPREHSDAVPDAPILPVSPIWEPPPATTSTTPVLSSQPPTLLLPLQ [chain 2 N33Q] | 0.57

Results, then the variant that gave them:

Row | ratio to parent | Variant
7 | 0.86 | chain 2 DLKVEMMAGGTQITPLNDNVTIFCNIFYSQPLNITSMGITWFWKSLTFDKEVKVFEFFGDHQEAFRPGAIVSPWRLKSGDASLRLPGIQLEEAGEYRCEVVVTPLKAQGTVQLEVVASPASRLLLDQVGMKENEDKYMCESSGFYPEAINITWEKQTQKFPHPIEISEDVITGPTIKNMDGTFNVTSCLKLNSSQEDPGTVYQCVVRHASLHTPLRSQFTLTAARHSLSETEKTDNFSIHWWPISFIGVGLVLLIVLIPWKKICNKSSSAYTPLKCILKHWNSFDTQTLKKEHLIFFCTRAWPSYQLQDGEAWPPEGSVNINTIQQLDVFCRQEGKWSEVPYVQAFFALRDNPDLCQCCRIDPALLTVTSGKSIDDNSTKSEKQTPREHSDAVPDAPILPVSPIWEPPPATTSTTPVLSSQPPTLLLPLQ [chain 2 N218Q]
8 | 0.42 | chain 2 DLKVEMMAGGTQITPLNDNVTIFCNIFYSQPLNITSMGITWFWKSLTFDKEVKVFEFFGDHQEAFRPGAIVSPWRLKSGDASLRLPGIQLEEAGEYRCEVVVTPLKAQGTVQLEVVASPASRLLLDQVGMKENEDKYMCESSGFYPEAINITWEKQTQKFPHPIEISEDVITGPTIKNMDGTFNVTSCLKLQSSQEDPGTVYQCVVRHASLHTPLRSNFTLTAARHSLSETEKTDNFSIHWWPISFIGVGLVLLIVLIPWKKICNKSSSAYTPLKCILKHWNSFDTQTLKKEHLIFFCTRAWPSYQLQDGEAWPPEGSVNINTIQQLDVFCRQEGKWSEVPYVQAFFALRDNPDLCQCCRIDPALLTVTSGKSIDDNSTKSEKQTPREHSDAVPDAPILPVSPIWEPPPATTSTTPVLSSQPPTLLLPLQ [chain 2 N192Q]
